Where two headings read alike, the source gives them in different places.
What was measured:
human TIMP-1 [1] = target: T1, human TIMP-1 (human, UniProt P01033 24-207); test: SPR (BIAcore), human TIMP-1 on chip, IgG1, bivalent fit (avidity)
T1 construct: Purified protein, coupled to the BIAcore chip or in solution in the protease assay
Method: (§1) For affinity determination, monomeric fractions of affinity and SEC purified Fab fragments or purified IgG1 molecules were used. All experiments were conducted in HBS buffer at a flow rate of 20 μl/min at 25° C. on a BIAcore™ instrument. Antigens in 100 mM sodium acetate pH 5.0 were coupled to a CM 5 sensor chip using standard EDC-NHS coupling chemistry. […] All sensograms were fitted globally using BIA evaluation software. For monovalent Fab fragments a monovalent fit (Langmuir binding) and for IgGs a bivalent fit was applied.

human TIMP-1 [2] = target: T1, human TIMP-1; test: cell-based or functional assay
rat TIMP-1 [3] = target: T2, rat TIMP-1 (rat, UniProt P30120 24-217); test: cell-based or functional assay
T2 sequence (P30120 24-217 limits assumed): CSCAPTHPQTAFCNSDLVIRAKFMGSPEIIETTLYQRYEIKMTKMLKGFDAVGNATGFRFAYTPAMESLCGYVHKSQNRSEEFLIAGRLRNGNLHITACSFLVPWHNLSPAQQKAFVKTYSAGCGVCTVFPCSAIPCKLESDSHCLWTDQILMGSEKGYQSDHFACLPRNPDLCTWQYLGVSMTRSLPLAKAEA

rat TIMP-1 [4] = target: T2, rat TIMP-1; test: cell-based or functional assay; remark: listed apart in the source
human TIMP-1 [5] = target: T1, human TIMP-1; test: SPR (BIAcore), TIMP-1 coupled to chip, monovalent Fab
Method: as §1

rat TIMP-1 [6] = target: T2, rat TIMP-1; test: as above
Method: as §1

rat TIMP-1 [7] = target: T2, rat TIMP-1; test: as above; remark: listed apart in the source
Method: as §1

rat TIMP-1 [8] = target: T2, rat TIMP-1; test: cell-based or functional assay; remark: listed apart in the source
rat TIMP-1 [9] = target: T2, rat TIMP-1; test: cell-based or functional assay; remark: listed apart in the source
rat TIMP-1 [10] = target: T2, rat TIMP-1; test: SPR (BIAcore), rat TIMP-1 on chip, IgG1, bivalent (avidity)
Method: as §1
Affinity matured clone MS-BW-17-1 was then converted from a monovalent Fab fragment to a bivalent IgG₁. Protein was produced by stable transfection. Purified protein was subjected to quality control in BIAcore™ and rat TIMP-1/rat MMP-13 assays (FIG. 13).

rat TIMP-1 [11] = target: T2, rat TIMP-1; test: cell-based or functional assay; remark: listed apart in the source
rat TIMP-1 [12] = target: T2, rat TIMP-1; test: SPR (BIAcore), rat TIMP-1 on chip, monovalent Fab
Method: as §1

human TIMP-1 [13] = target: T1, human TIMP-1; test: cell-based or functional assay; remark: listed apart in the source
human TIMP-1 [14] = target: T1, human TIMP-1; test: SPR (BIAcore), TIMP-1 coupled to chip, monovalent Fab; remark: listed apart in the source
Method: as §1

human TIMP-1 [15] = target: T1, human TIMP-1; test: cell-based or functional assay; remark: listed apart in the source
human TIMP-1 [16] = target: T1, human TIMP-1; test: cell-based or functional assay; remark: listed apart in the source
human TIMP-1 [17] = target: T1, human TIMP-1; test: cell-based or functional assay; remark: listed apart in the source
human TIMP-1 [18] = target: T1, human TIMP-1; test: SPR (BIAcore), TIMP-1 coupled to chip, monovalent Fab; remark: listed apart in the source
Method: as §1

human TIMP-1 [19] = target: T1, human TIMP-1; test: as above; remark: listed apart in the source
Method: as §1

human TIMP-1 [20] = target: T1, human TIMP-1; test: SPR (BIAcore); against the parental Fab (MS-BW-3, 13 nM; not given)
Method: as §1

human TIMP-1 [21] = target: T1, human TIMP-1; test: cell-based or functional assay; remark: listed apart in the source
human TIMP-1 [22] = target: T1, human TIMP-1; test: SPR (BIAcore); against the parental Fab (MS-BW-44-2, 0.5 nM; implied)
Method: as §1

B1: MS-BW-3 IgG1 (antibody, V domains shown)
VH: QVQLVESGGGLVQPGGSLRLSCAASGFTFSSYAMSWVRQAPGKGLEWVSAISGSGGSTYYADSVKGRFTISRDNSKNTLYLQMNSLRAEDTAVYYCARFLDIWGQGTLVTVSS
VL: DIALTQPASVSGSPGQSITISCTGTSSDVGGYNYVSWYQQHPGKAPKLMIYDVSNRPSGVSNRFSGSKSGNTASLTISGLQAEDEADYYCQSYDFLRFSVFGGGTKLTVL
notes: Variable regions of Fab MS-BW-3 cloned into human IgG1 vectors; also called negative control IgG1 MS-BW-3; control antibody; copies: 2 + 2
Kd (human TIMP-1 [1]): ~0.4 nM

B2: MS-BW-21 (Fab, V domains shown)
VH: QVQLVQSGAEVKKPGSSVKVSCKASGGTFSSYAISWVRQAPGQGLEWMGGIIPIFGTANYAQKFQGRVTITADESTSTAYMELSSLRSEDTAVYYCARYIGYTNVMDIRPGFYLDYWGQGTLVTVSS
VL: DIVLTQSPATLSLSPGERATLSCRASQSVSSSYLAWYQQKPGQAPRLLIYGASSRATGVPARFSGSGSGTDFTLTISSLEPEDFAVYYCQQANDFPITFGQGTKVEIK
IC50 in human protease assay (human TIMP-1 [2]): > 300 nM
IC50 in rat protease assay (rat TIMP-1 [3]): 67 nM
IC50 in rat protease assay (rat TIMP-1 [4]): 67 nM
Kd (human TIMP-1 [5]): 520 nM
Kd (rat TIMP-1 [6]): 36 nM
Kd (rat TIMP-1 [7]): 36 nM

B3: MS-BW-17-1 (Fab, V domains shown)
VH: QVQLVQSGAEVKKPGESLKISCKGSGYSFTSYWIGWVRQMPGKGLEWMGIIYPGDSDTRYSPSFQGQVTISADKSISTAYLQWSSLKASDTAMYYCARLTNYFDSIYYDHWGQGTLVTVSS
VL: DIALTQPASVSGSPGQSITISCTGTSSDVGGYNYVSWYQQHPGKAPKLMIYDVSNRPSGVSNRFSGSKSGNTASLTISGLQAEDEADYYCQAFDVAPNGKVFGGGTKLTVLG
notes: Fab from LCDR3 optimization of MS-BW-17; also called MS-BW-17-1 Fab; BW-17-1 Fab
IC50 in rat protease assay (rat TIMP-1 [8]): 1.6 nM
IC50 (50 % reversal of the inhibition of rat MMP-13 by rat TIMP-1, fluorogenic peptide substrate assay) (rat TIMP-1 [9]): ~1.3 nM
Kd (rat TIMP-1 [6]): 0.8 nM

B4: MS-BW-17-1 IgG1 (antibody, V domains shown)
VH: QVQLVQSGAEVKKPGESLKISCKGSGYSFTSYWIGWVRQMPGKGLEWMGIIYPGDSDTRYSPSFQGQVTISADKSISTAYLQWSSLKASDTAMYYCARLTNYFDSIYYDHWGQGTLVTVSS
VL: DIALTQPASVSGSPGQSITISCTGTSSDVGGYNYVSWYQQHPGKAPKLMIYDVSNRPSGVSNRFSGSKSGNTASLTISGLQAEDEADYYCQAFDVAPNGKVFGGGTKLTVL
notes: Fab MS-BW-17-1 converted to bivalent human IgG1
IC50 (50 % reversal of the inhibition of rat MMP-13 by rat TIMP-1, fluorogenic peptide substrate assay) (rat TIMP-1 [9]): ~0.9 nM
Kd (rat TIMP-1 [10]): 0.04 nM

B5: MS-BW-14 (Fab, V domains shown)
VH: QVQLVQSGAEVKKPGSSVKVSCKASGGTFSSYAISWVRQAPGQGLEWMGGIIPIFGTANYAQKFQGRVTITADESTSTAYMELSSLRSEDTAVYYCARWSDQSYHYYWHPYFDVWGQGTLVTVSS
VL: DIVLTQPPSVSGAPGQRVTISCSGSSSNIGSNYVSWYQQLPGTAPKLLIYDNNQRPSGVPDRFSGSKSGTSASLAITGLQSEDEADYYCQSWDLEPYVFGGGTKLTVLG
notes: Fab, FLAG + Strep-tag II; not tied by name; also called MS-BW-14 Fab
IC50 in rat protease assay (rat TIMP-1 [4]): 14 nM
IC50 in rat protease assay (rat TIMP-1 [8]): 14 nM
IC50 (50 % reversal of the inhibition of rat MMP-13 by rat TIMP-1, fluorogenic peptide substrate assay) (rat TIMP-1 [11]): ~11 nM
Kd (rat TIMP-1 [12]): 13 nM
Kd (rat TIMP-1 [6]): 10 nM
Kd (rat TIMP-1 [7]): 10 nM

B6: MS-BW-39 (Fab, V domains shown)
VH: QVQLVQSGAEVKKPGSSVKVSCKASGGTFSSYAISWVRQAPGQGLEWMGGIIPIFGTANYAQKFQGRVTITADESTSTAYMELSSLRSEDTAVYYCARGYIPYHLFDYWGQGTLVTVSS
VL: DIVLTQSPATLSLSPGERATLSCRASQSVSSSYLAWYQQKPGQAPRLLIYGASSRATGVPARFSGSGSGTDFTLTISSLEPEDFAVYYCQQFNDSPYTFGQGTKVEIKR
notes: Fab, FLAG + Strep-tag II; not tied by name
IC50 in rat protease assay (rat TIMP-1 [3]): > 100 nM
IC50 in rat protease assay (rat TIMP-1 [4]): > 100 nM
Kd (rat TIMP-1 [6]): ~108 nM
Kd (rat TIMP-1 [7]): ~108 nM

B7: MS-BW-25 (Fab, V domains shown)
VH: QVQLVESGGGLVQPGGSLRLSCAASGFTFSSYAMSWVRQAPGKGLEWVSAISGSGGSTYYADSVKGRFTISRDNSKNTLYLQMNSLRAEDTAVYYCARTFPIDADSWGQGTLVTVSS
VL: DIALTQPASVSGSPGQSITISCTGTSSDVGGYNYVSWYQQHPGKAPKLMIYDVSNRPSGVSNRFSGSKSGNTASLTISGLQAEDEADYYCQSYDFINVIVFGGGTKLTVLG
notes: as for B6
IC50 in human protease assay (human TIMP-1 [2]): 115 nM
IC50 in rat protease assay (rat TIMP-1 [3]): > 300 nM
IC50 in human protease assay (human TIMP-1 [13]): 115 nM
Kd (human TIMP-1 [5]): 25 nM
Kd (rat TIMP-1 [6]): 4520 nM
Kd (human TIMP-1 [14]): 25 nM

B8: MS-BW-44 (Fab, V domains shown)
VH: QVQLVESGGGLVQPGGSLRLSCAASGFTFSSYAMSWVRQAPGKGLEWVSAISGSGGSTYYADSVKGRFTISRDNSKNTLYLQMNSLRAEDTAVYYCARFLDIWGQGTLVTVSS
VL: DIALTQPASVSGSPGQSITISCTGTSSDVGGYNYVSWYQQHPGKAPKLMIYDVSNRPSGVSNRFSGSKSGNTASLTISGLQAEDEADYYCQSYDFVRFMVFGGGTKLTVLG
notes: Fab: heavy chain of MS-BW-3 with light chain of MS-BW-26; not tied by name
IC50 in human protease assay (human TIMP-1 [15]): 4 nM
IC50 in human protease assay (modified, 0.4 nM TIMP-1 and MMP-1) (human TIMP-1 [16]): 2 nM
IC50 in human protease assay (human TIMP-1 [17]): 4 nM
IC50 in human protease assay (modified, decreased amounts of TIMP-1 and MMP-1) (human TIMP-1 [17]): 2 nM
Kd (human TIMP-1 [5]): 2 nM
Kd (human TIMP-1 [18]): 2 nM
Kd (human TIMP-1 [19]): 2 nM
improvement factor (Kd) (human TIMP-1 [20]): 6.5 fold

B9: MS-BW-38 (Fab, V domains shown)
VH: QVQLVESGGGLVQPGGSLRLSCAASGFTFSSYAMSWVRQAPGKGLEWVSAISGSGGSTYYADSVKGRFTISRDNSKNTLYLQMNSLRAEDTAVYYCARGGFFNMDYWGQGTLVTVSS
VL: DIALTQPASVSGSPGQSITISCTGTSSDVGGYNYVSWYQQHPGKAPKLMIYDVSNRPSGVSNRFSGSKSGNTASLTISGLQAEDEADYYCQSYDFTYGSVFGGGTKLTVLG
notes: as for B6
IC50 in human protease assay (human TIMP-1 [2]): ~11 nM
IC50 in rat protease assay (rat TIMP-1 [3]): > 300 nM
IC50 in rat protease assay (rat TIMP-1 [4]): > 300 nM
Kd (human TIMP-1 [5]): ~3 nM
Kd (rat TIMP-1 [6]): ~353 nM
Kd (rat TIMP-1 [7]): ~353 nM

B10: MS-BW-44-2-4 (Fab, V domains shown)
VH: QVQLVESGGGLVQPGGSLRLSCAASGFTFSSYAMSWVRQAPGKGLEWVSGISGNGVLIFYADSVKGRFTISRDNSKNTLYLQMNSLRAEDTAVYYCARGLMDYWGQGTLVTVSS
VL: DIALTQPASVSGSPGQSITISCTGTSSDVGGYNYVSWYQQHPGKAPKLMIYDVSNRPSGVSNRFSGSKSGNTASLTISGLQAEDEADYYCQSYDFVRFMVFGGGTKLTVLG
notes: Fab from HCDR3 optimization of MS-BW-44-2
improvement factor with respect to the IC50 in human TIMP-1/MMP-1 assay (against the Fab of the previous maturation cycle, MS-BW-44-2) (human TIMP-1 [21]): 2 fold
IC50 in human protease assay (modified, decreased TIMP-1 and MMP-1) (human TIMP-1 [17]): 0.2 nM
Kd (human TIMP-1 [19]): 0.2 nM
improvement factor (affinity) (human TIMP-1 [22]): 2.5 fold

B11: MS-BW-28 (Fab, V domains shown)
VH: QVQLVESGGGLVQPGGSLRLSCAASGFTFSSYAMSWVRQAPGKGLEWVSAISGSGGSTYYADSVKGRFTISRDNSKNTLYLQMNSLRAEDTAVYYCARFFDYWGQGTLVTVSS
VL: DIALTQPASVSGSPGQSITISCTGTSSDVGGYNYVSWYQQHPGKAPKLMIYDVSNRPSGVSNRFSGSKSGNTASLTISGLQAEDEADYYCQSYDFRRFSVFGGGTKLTVLG
notes: as for B6
IC50 in human protease assay (human TIMP-1 [13]): 22 nM
Kd (human TIMP-1 [14]): 10 nM

B12: MS-BW-44-2 (Fab, V domains shown)
VH: QVQLVESGGGLVQPGGSLRLSCAASGFTFSSYAMSWVRQAPGKGLEWVSGISGNGVLIFYADSVKGRFTISRDNSKNTLYLQMNSLRAEDTAVYYCARFLDIWGQGTLVTVSS
VL: DIALTQPASVSGSPGQSITISCTGTSSDVGGYNYVSWYQQHPGKAPKLMIYDVSNRPSGVSNRFSGSKSGNTASLTISGLQAEDEADYYCQSYDFVRFMVFGGGTKLTVLG
notes: Fab; MS-BW-44 with a modified HCDR2 cassette
IC50 in human protease assay (modified, 0.4 nM TIMP-1 and MMP-1) (human TIMP-1 [16]): 0.4 nM
IC50 in human protease assay (modified, decreased TIMP-1 and MMP-1) (human TIMP-1 [17]): 0.4 nM
Kd (human TIMP-1 [18]): 0.5 nM
Kd (human TIMP-1 [19]): 0.5 nM

B13: MS-BW-44-6 (Fab, V domains shown)
VH: QVQLVESGGGLVQPGGSLRLSCAASGFTFNSYAMSWVRQAPGKGLEWVSVISGNGSNTYYADSVKGRFTISRDNSKNTLYLQMNSLRAEDTAVYYCARFLDIWGQGTLVTVSS
VL: DIALTQPASVSGSPGQSITISCTGTSSDVGGYNYVSWYQQHPGKAPKLMIYDVSNRPSGVSNRFSGSKSGNTASLTISGLQAEDEADYYCQSYDFVRFMVFGGGTKLTVLG
notes: Fab; MS-BW-44 with modified HCDR1 and HCDR2 cassettes
IC50 in human protease assay (modified, 0.4 nM TIMP-1 and MMP-1) (human TIMP-1 [16]): 0.2 nM
IC50 in human protease assay (modified, decreased TIMP-1 and MMP-1) (human TIMP-1 [17]): 0.2 nM
Kd (human TIMP-1 [18]): 0.6 nM
Kd (human TIMP-1 [19]): 0.6 nM
